Experiments:
[1] = target: T1, DNA primase large subunit PriL, full length;DNA primase small subunit PriS (Saccharomyces cerevisiae;Saccharomyces …, UniProt P20457;P10363 1-528;1-409, |); experiment: fluorescence anisotropy; 20 nM DNA; Buffer F: 20 mM HEPES pH 6.8, 150 mM KCl, 1 mM EDTA, 25 C; SPR in buffer F + 0.005% P20, 25 C; conditions: protein: recombinant;recombinant; tags: ;; copies: 1;1; label: fluorescein; single strand
T1 sequence 1: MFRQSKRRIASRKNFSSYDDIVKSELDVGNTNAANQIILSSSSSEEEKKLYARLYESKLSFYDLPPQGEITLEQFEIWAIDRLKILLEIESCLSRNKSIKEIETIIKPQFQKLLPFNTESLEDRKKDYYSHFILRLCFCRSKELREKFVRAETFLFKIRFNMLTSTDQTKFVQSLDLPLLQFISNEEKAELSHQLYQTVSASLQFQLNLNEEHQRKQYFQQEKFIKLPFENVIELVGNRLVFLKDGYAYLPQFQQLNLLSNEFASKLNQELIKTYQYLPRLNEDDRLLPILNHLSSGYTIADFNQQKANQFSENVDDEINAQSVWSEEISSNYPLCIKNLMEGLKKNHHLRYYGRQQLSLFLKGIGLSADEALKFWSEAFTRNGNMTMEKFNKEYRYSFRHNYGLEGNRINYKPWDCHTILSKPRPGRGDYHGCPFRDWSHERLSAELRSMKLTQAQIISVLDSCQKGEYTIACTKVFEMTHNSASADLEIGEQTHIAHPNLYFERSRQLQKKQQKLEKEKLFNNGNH
T1 sequence 2: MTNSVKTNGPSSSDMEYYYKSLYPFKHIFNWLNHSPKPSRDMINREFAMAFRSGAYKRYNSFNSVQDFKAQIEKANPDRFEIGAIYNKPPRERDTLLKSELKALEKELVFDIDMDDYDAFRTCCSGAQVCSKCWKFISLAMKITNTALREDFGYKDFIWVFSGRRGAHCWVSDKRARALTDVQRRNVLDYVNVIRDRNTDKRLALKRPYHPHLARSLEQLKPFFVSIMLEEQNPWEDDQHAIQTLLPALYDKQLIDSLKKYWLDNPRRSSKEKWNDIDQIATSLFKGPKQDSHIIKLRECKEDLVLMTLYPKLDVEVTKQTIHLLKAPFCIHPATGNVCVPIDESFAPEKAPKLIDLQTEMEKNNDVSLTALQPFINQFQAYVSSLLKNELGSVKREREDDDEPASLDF

PriL-CTD [2] = target: T2, PriL-CTD (Saccharomyces cerevisiae, UniProt P20457 316-512, del381-383); experiment: fluorescence anisotropy; 80 nM DNA; Buffer F: 20 mM HEPES pH 6.8, 150 mM KCl, 1 mM EDTA, 25 C; SPR in buffer F + 0.005% P20, 25 C; conditions: protein: recombinant, tags: N-terminal His6, removed by TEV
T2 sequence: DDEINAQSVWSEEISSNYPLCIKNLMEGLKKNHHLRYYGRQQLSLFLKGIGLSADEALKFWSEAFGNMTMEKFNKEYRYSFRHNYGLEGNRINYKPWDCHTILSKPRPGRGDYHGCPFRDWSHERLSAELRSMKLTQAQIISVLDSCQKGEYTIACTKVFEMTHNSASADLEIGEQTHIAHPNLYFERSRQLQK

PriL-CTD [3] = target: T2, PriL-CTD; experiment: fluorescence anisotropy; Kd similar to the 70 µM of the mixed 20mer; data not shown; Buffer F: 20 mM HEPES pH 6.8, 150 mM KCl, 1 mM EDTA, 25 C; SPR in buffer F + 0.005% P20, 25 C; conditions: protein: recombinant; tags: N-terminal His6, removed by TEV; label: fluorescein; single strand

For TTTTTTTTTTTTTTTTTTTTTTTTTTTTTTTTTTTTTTTT (ssDNA) [poly(dT) 40mer], which Kd [1] is on record?
Its Kd is 1700 nM.

Which Kd (PriL-CTD [2]; label: 5' fluorescein, single strand) does the source give for GGTGAGAGGAGAATGGAAGT (ssDNA) [ssDNA 20mer (fluorescein)] here?
The Kd was 70 ± 0.2 µM.

B1: dsDNA 20mer (fluorescein) (dsDNA)
DNA 1: GGTGAGAGGAGAATGGAAGT
DNA 2: ACTTCCATTCTCCTCTCACC
Which Kd (PriL-CTD [2]; label: 5' fluorescein on S2, the printed complement S1 carries 5' biotin, blunt) does the source give for B1 here?
The Kd was 178 ± 1.3 µM.

Does TTTTTTTTTTTTTTTTTTTT (ssDNA) [poly(dT) 20mer] bind (PriL-CTD [3])?
Result: binds

Reference: publication PMC2852410, “Shared Active Site Architecture between the Large Subunit of Eukaryotic Primase and DNA Photolyase”
